In article PMC5515730 (Nature Structural & Molecular Biology, 2016):

Target: the molecule itself
Test: cryo-EM structure

B1: HCoV-NL63 spike (S) glycoprotein ectodomain fused to a GCN4 trimerization motif (domain or fragment)
chain: FFTCNSNANLSMLQLGVPDNSSTIVTGLLPTHWFCANQSTSVYSANGFFYIDVGNHRSAFALHTGYYDANQYYIYVTNEIGLNASVTLKICKFSRNTTFDFLSNASSSFDCIVNLLFTEQLGAPLGITISGETVRLHLYNVTRTFYVPAAYKLTKLSVKCYFNYSCVFSVVNATVTVNVTTHNGRVVNYTVCDDCNGYTDNIFSVQQDGRIPNGFPFNNWFLLTNGSTLVDGVSRLYQPLRLTCLWPVPGLKSSTGFVYFNATGSDVNCNGYQHNSVVDVMRYNLNFSANSLDNLKSGVIVFKTLQYDVLFYCSNSSSGVLDTTIPFGPSSQPYYCFINSTINTTHVSTFVGILPPTVREIVVARTGQFYINGFKYFDLGFIEAVNFNVTTASATDFWTVAFATFVDVLVNVSATNIQNLLYCDSPFEKLQCEHLQFGLQDGFYSANFLDDNVLPETYVALPIYYQHTDINFTATASFGGSCYVCKPHQVNISLNGNTSVCVRTSHFSIRYIYNRVKSGSPGDSSWHIYLKSGTCPFSFSKLNNFQKFKTICFSTVEVPGSCNFPLEATWHYTSYTIVGALYVTWSEGNSITGVPYPVSGIREFSNLVLNNCTKYNIYDYVGTGIIRSSNQSLAGGITYVSNSGNLLGFKNVSTGNIFIVTPCNQPDQVAVYQQSIIGAMTAVNESRYGLQNLLQLPNFYYVSNGGNNCTTAVMTYSNFGICADGSLIPVRPRNSSDNGISAIITANLSIPSNWTTSVQVEYLQITSTPIVVDCATYVCNGNPRCKNLLKQYTSACKTIEDALRLSAHLETNDVSSMLTFDSNAFSLANVTSFGDYNLSSVLPQRNIRSSRIAGRSALEDLLFSKVVTSGLGTVDVDYKSCTKGLSIADLACAQYYNGIMVLPGVADAERMAMYTGSLIGGMVLGGLTSAAAIPFSLALQARLNYVALQTDVLQENQKILAASFNKAINNIVASFSSVNDAITQTAEAIHTVTIALNKIQDVVNQQGSALNHLTSQLRHNFQAISNSIQAIYDRLDSIQADQQVDRLITGRLAALNAFVSQVLNKYTEVRGSRRLAQQKINECVKSQSNRYGFCGNGTHIFSIVNSAPDGLLFLHTVLLPTDYKNVKAWSGICVDGIYGYVLRQPNLVLYSDNGVFRVTSRVMFQPRLPVLSDFVQIYNCNVTFVNISRVELHTVIPDYVDVNKTLQEFAQNLPKYVKPNFDLTPFNLTYLNLSSELKQLEAKTASLFQTTVELQGLIDQINSTYVDLKLLNRFENLIKRMKQIEDKIEEIESKQKKIENEIARIKKIKLVPRGSLE
modifications: N-linked glycans (glycosylation shown at 34 of 39 NXS/T sequons; paucimannosidic or high-mannose)
- stoichiometry N: 3
